Results as given in US7127357 (dated 2006).
Non-standard residues stand in square brackets, D forms with d. No end group written: not given here. pS = N[C@@H](COP(=O)(O)O)C(=O)O

Target: F25Y
Test: binding to CTD phosphopeptide

Question: For Y[pS]PT[pS]PS (also: tetramethylrhodamine label on an amine, place not given here) [CTD Repeat Tyr-P.Ser-Pro-Thr-P.Ser-Pro-Ser], which Kd is on record?
Answer: 12 µM
